# Source: PMC3246890 (The Journal of Cell Biology, 2011)
# B1: NcadEC-Fc (secreted ectodomain of zebrafish N-cadherin fused to the Fc region of human IgG) (Fc fusion, UniProt Q90275 147-711, looked up)
# chain: DWVIPPVNVLENSRKQFPEELVKIQSDKDKSNTLRYSVTGPGADQNPTGLFIIDPISGLLSVTKPLDREHIPNFHLRAHAVDINGNQMENPIDIIINVIDMNDNRPEFTHQIWNGTVDEGAKPGTFVMTVTSQDKDDPNTANGMLRYKILSQTPESPSSNMFTINNKTGKIITVAAGLDREKVPQYTLIIQATDMEGNPTYGLSNTATAVIRLLDVNDNAPEFTRETFHGEVPENRVNVIVTNLTVTDKDEPGTPAWNAVYRIISGDPTGRFSIPTDPVTNEGLVTVVKPVDFEMNRSFMLTVVADNEVPLASGIHRTRQSTATVSIRVIDVNESPNFDPNPKQIKLEEGLPQWSMLTTFTAHDPDRYMQQTISYSKLYDPANWLEIDPNNGRISTIAVLDRESPYVKNNLYNATFMASDNGVPRASGTGTLQIYLLDINDNAPRVFPQEAEVCERPEPNAINITAVDGDLNPNAGPYAFELPNRPSDIRRNWTLTRISGDHAQLSLKISYLESGIYELPISITDSGNLPMSNTTYLRIKVCQCDHHGDCVDMERIMAAGLGTGA
# Molecular target: the molecule itself
# Assay: bead aggregation assay
protein,measurement,value
B1,binding result,binds
